This assay concerns the target MBP-GSK3β-HA-His (human, UniProt P49841 1-420, phosphotyrosine at 216 (activation loop)). The experiment in a line: BLI.

Chain of MBP-GSK3β-HA-His (P49841 whole entry): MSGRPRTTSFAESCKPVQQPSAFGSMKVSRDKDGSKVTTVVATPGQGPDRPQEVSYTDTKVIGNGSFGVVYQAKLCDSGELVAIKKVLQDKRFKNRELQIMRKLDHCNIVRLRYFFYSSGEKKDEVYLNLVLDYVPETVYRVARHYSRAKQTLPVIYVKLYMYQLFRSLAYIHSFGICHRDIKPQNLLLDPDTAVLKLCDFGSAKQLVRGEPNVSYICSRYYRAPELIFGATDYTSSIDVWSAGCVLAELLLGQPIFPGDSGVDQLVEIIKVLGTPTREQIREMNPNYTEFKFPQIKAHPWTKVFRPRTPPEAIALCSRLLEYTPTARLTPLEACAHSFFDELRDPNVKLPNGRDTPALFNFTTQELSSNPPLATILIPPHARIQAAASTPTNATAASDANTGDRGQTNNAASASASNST

B1: MBP-Axin_(384-518)-His (miniAxin) (domain or fragment, human, UniProt O15169-2 384-518, looked up)
chain: EPQKFAEELIHRLEAVQRTREAEEKLEERLKRVRMEEEGEDGDPSSGPPGPCHKLPPAPAWHHFPPRCVDMGCAGLRDAHEENPESILDEHVQRVLRTPGRQSPGPGHRSPDSGHVAKMPVALGGAASGHGKHVP
modifications: biotin (NHS-PEG4-biotin, molar coupling ratio 1:1) where it was immobilised (assay with GSK3β)
Turning to B1, the Kd – broadly, the concentration at which binding is half-saturated – stood at 16 nM.

These data come from paper PMC8078012 (Cell systems, 2020).
